Data from paper PMC8266594 (Nucleic Acids Research, 2021).
Where a chain is given by its changes, count along the chain named. Names and notes keep the numbering of the source.

B1: His-RnlA (wild-type RnlA toxin, N-terminally His-tagged) (enzyme)
chain: MTIRSYKNLNLVRANIETESRQFIENKNYSIQSIGPMPGSRAGLRVVFTRPGVNLATVDIFYNGDGSTTIQYLTGANRSLGQELADHLFETINPAEFEQVNMVLQGFVETSVLPVLELSADESHIEFREHSRNAHTVVWKIISTSYQDELTVSLHITTGKLQIQGRPLSCYRVFTFNLAALLDLQGLEKVLIRQEDGKANIVQQEVARTYLQTVMADAYPHLHVTAEKLLVSGLCVKLAAPDLPDYCMLLYPELRTIEGVLKSKMSGLGMPVQQPAGFGTYFDKPAAHYILKPQFAATLRPEQINIISTAYTFFNVERHSLFHMETVVDASRMISDMARLMGKATRAWGIIKDLYIV
B2: R255A RnlA, N-terminally His-tagged (enzyme, Escherichia coli, UniProt P52129 1-357, looked up)
chain: B1 chain with R255A
B3: D245R RnlA, N-terminally His-tagged (enzyme, Escherichia coli, UniProt P52129 1-357, looked up)
chain: B1 chain with D245R
B4: RnlAΔ1–91 (TBP2-HEPN) truncated RnlA, N-terminally His-tagged (domain or fragment, Escherichia coli, UniProt P52129 92-357, looked up)
chain: INPAEFEQVNMVLQGFVETSVLPVLELSADESHIEFREHSRNAHTVVWKIISTSYQDELTVSLHITTGKLQIQGRPLSCYRVFTFNLAALLDLQGLEKVLIRQEDGKANIVQQEVARTYLQTVMADAYPHLHVTAEKLLVSGLCVKLAAPDLPDYCMLLYPELRTIEGVLKSKMSGLGMPVQQPAGFGTYFDKPAAHYILKPQFAATLRPEQINIISTAYTFFNVERHSLFHMETVVDASRMISDMARLMGKATRAWGIIKDLYIV

Biological target: the molecule itself
Assay: SAXS

| Protein | stoichiometry N |
| --- | --- |
| B1 | 2 |
| B2 | 2 |
| B3 | 2 |
| B4 | 2 |
